Experimental data: the nanobody polyreactivity screen of Harvey et al. (2022)

Assay: yeast display, Sf9 membrane polyspecificity reagent, FACS + sequencing; frameworks hold sequencing errors
How it was run: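 A nanobody's polyreactivity label depends on the gate it was sorted from. Yeast display cells were stained with 10% biotinylated, detergent-solubilized Sf9 membrane reagent for 1 hour at 4 °C, enriched on streptavidin microbeads and sorted by FACS. The low and high (top ~1%) gates were set on anti-HA fluorescence for expression and streptavidin fluorescence for reagent binding.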

Sequence	polyreactivity (PSR sort gate)
QVQLVESGGGLVQAGGSLRLSCDASGGTFYVNHMAWYRPAPWKERELVATITYSGTSTYYADSVKGRFTISRDNAKNTVYLQMNSLKPEDTAVYYCATDVLLYFEPVNLDYWGQGTQVTVSS	low polyreactivity
QVQLVESGGGLVQAGGRLRLRCAASGSIFEPNAMGWYRQSPWKERELVATIRDSGGRTYYADSVKGRFTISRDNAKNTVYLQMNSLKPEDTAVYYCAARRYLGWFSYRLYDYWGQGTQVTVSS	high polyreactivity
QVQLVESGGGLVQAGGSLRLSCAASGFTFYSYAMGWYRQAPGKERELVAAITRSGGNTYYADSVKGRFTISRDNAKNTVYLQMNSLKPEDTAVYYCAAPGKGISPSHYYWGQGPQVTVSS	high polyreactivity
QVQLVESGGGLVQAGGSLRLSCAASGFIIGDYAMGWYRQAPGTERELVAAIFSVGSTYYADSVKGRFTISRDNAKNTVYLQMNSLKPEDTAVYYCAARFARYDWSMYYWGQGTQVTVSS	low polyreactivity
QVQLVESGGGLVQAGGSLRLSCAASGNTFPVNAMGWYRQAPGKERDLVAAISRTGASTYYADSVKGRITISRDNAKNTVYLQMNSLKPEDTAVYYCAKYLKTPHNRRRVEALGYWGQGTQVTVSS	high polyreactivity
QVQLVESGRGLVQAGGSLRLSCAASGRIFRSYAMGWYIPAPGKERELFAAISRSGGSTYYADSVKGRFTISRDNGKNTVYLQMNSLKPEDTAVYYCASRYSLGTNSKFFAYGYWGQGTQVNVSS	high polyreactivity
QVQLVESGGGLVQAVGSLRLSCAASGRTFRTYTMGWYRQAPGKERELVAAISRGGSTNYADSLKGRFTISRDNAKNTVYLQMNSLKPEDTAVYYCNAKASFWSPYDYWGQGTQVTVSS	high polyreactivity
QVQLVESGGGLVQAGGSLRLSCAPSGLIFYHYAMGWYRQAPGKERELVAGITRSGGSTYYADSVKGRFTISRDNAKNTVYLQMNSLKPEDTAVYYCAAKSLTTGKYGKYGYWGQGTQVTVSS	high polyreactivity
QVQLVESGGGLVQAGGSLRLSCAASGRIFQIYAMGWYRQAPGKERELVAAISNRGGSTYYADSVKGRFTISRDNAKNTVYLQMNSLKPEDTAVYYCNATTGYGGYNYWGQGTQVTVSS	low polyreactivity
QVQLVESGGCLVQAGGSLRLSCAASGIIFYYYAMGWSRQAPGKEREFVAGIRWSSGSTYYADSVKGRFTISRDNAKNTVYLQMNSLKPEDTAVYYCAAAYLSWYGGYYYWGQGSQVTVSS	low polyreactivity
QVQLVESGGGLVQAGGSLRLSCAASGLTFVDNAMGWYRQAPGKERELVAAISYNGGSTYYADSVMGRFTISRDNAKNTVYLLMNSLKPEDTAVYYCAADISVGRYGDMDYWGQGTQVTVSS	low polyreactivity
QVQLVESGGGLVQAGGSLRLSCAASGRTFSYYAMGWYRQAPGKEREFVAAISSTGTSTYYADSVKGRFTISRDNAKNTVYLQMNSLKPEDTAVYYCNARVATYRLHSKFYYWGQGTQVTVSS	high polyreactivity
QVQLVESGGGLVHAGGSLRLSCAASGSNFNINAMGWYRQAPGKERELVAAITTSGGRTYYSDSVKGRFTISRDNAKNTVYLQMNSLKPEDTAVYYCNARHLPGSRSWRWITYDYWGQGTQVTVSS	low polyreactivity
QDQLVESGGGLVQAGGSLRLSCAASGITFAYYVMGWYRQATGKERELVAAISRSGSTYYADSVKGRFTISRDNAKNTVYLQMNSLKPEDTAVNYCAVLYIRWYTYEYWGQGTQVTVSS	high polyreactivity
QVQLVESGGGLEQAGGSLRISCAASVSTVRFNAMGWYIQEPGKERQLVAVIRWRGGTTYYADSVKGRFTISRDNAKNTVYLQMNSLKPEDPAVYYCNADYWFSYTWHGSYTVGYWGQGTQVTVSS	high polyreactivity
QVQLVESGGGLVQAGGSLRLSCAASGRIFAKNVMGWYRQGPGKEWELVAAISRSGGSTYYADSVKGRFSISRDNAKNTVYLQMNSLKPEDTAVSYCGAYYGPDSARYYGGYEYWGQGTQVTVSS	high polyreactivity
QVHLVESGGGLVQAGGSLRLSCAASGGTDVGYAMGWYRQAPGKEMELDATITRRGGNTYYADSVKGRFTISRDNAKNTVYLQKNSLKPEDTAVYYCAARKKGSRVGYDYWGQGTQVTVSS	high polyreactivity
QVQIVESGGGLVQAGGSLRLTCAASGGIFARYTMGWYRQAPGKERELVATITSGGGTNYADSVKGRFTISRDNAKNTVYLQMISLKPEDTAVYYCAASPRAVSYGPDDRQQYDYWGQGSQVTVSS	low polyreactivity
QVQLVESGGGLVQAGGSLRLSCAASGRIFDDNTMGWYRQAPGKERELVAVITSGGSTNYADSVKGRFTISRDNAKNTVYLQMNSLKPVDTAVYYCATEPGGYRFDDRAFQYGYWGQGTQVTVSS	low polyreactivity
QVQLVESGGGLVQAGGSLRLSCAASGISFYEYGMGWYRQAPGKERELVAAITFGGGSTYYADSVKGRFTISRDNAKNTVYLQMNSLKPEDTAVYDCAADRVYWGRVQGYYWGQGTQVTVSS	low polyreactivity
QVQLVESGGGLVQAGGSLRISCAASGRIFFAYAMGWYRQAPGKERELVASITWSGSSTTYADSVKGRFTISRDNAKNTVYLQMNSLKPDDTAVYFCGSDPYFWGYHFRRYGSRGQGTQVTVSS	low polyreactivity
QDQLVESGGGLVQAGGSLRLSCAASGFTFAENAMGWYRQATGKEGELVAAISGSGGSTYYADSVKGRFTISRDNAKNTVYLQMNSLKPEDTAVYYCAADKPRPQYTDDDYWGQGTQVTVSS	high polyreactivity

Sequence	polyreactivity (PSR sort gate)
QVQLVESGGGLVQAGGSLRLSCAASGRIFGFYAMGWSRQAPGKERELVPGITGSGDGTYADSVKGRFTISRDNAKNTVYLQMNSLKPEDTAVYYCAADYAVGKHWRYGTYRGHYWGQGTQVTVSS	low polyreactivity
QVQLVESGGGFVQAGGSLRLSCAASGFIFYMFAMGWYRQAPGKERELVAAITSRGGSTFYADSVKGRFTISRDNAKNTVYLQMNSLKPEDTAVYYCAAVRDLYTYRLGYWGQGTQVTVSS	high polyreactivity
QVQLVESGGGLVQAGGSLRLSCAASGSIFASNAMGWYRQAPGKERELVAAINSGDSTNYADSVKGRFTISRDNAKNTVYFQMNSLKPEDTAVYYCARGLEERYDYWGQGTQVTVSS	low polyreactivity
QVQLVESGGGLVQAGGSLRLSCAASGSIFTNAMGWYIQAPGKERELVAAISSSGGSTYYADSVKGRFTISRDNANNTVYLQMNSLKPEDTAVYYCSADHFGGRDYWGQGTQVTVSS	low polyreactivity
QVQLVESGGRLVQAGGSLRLSCAASGSIFAWSMGWYRPAPGKERELVAAISSGGSTYYADSVKGRFTISRDNAKNTVYFQMNSLKPEDTAVYYCAAGLISRFSRYYFWGQGTQVTVSS	high polyreactivity
QVQLVESGGGLVQAGGSLRLSCAASGSIFVSNAMGWYRQAPGKERELVAAITARDFSTYYADSVKGRFTISRDNAKNTVYLEMNSQKPEDTAVYYCAGNSSTYPSDDSYDYWGQGTQVTVSS	low polyreactivity
QVQLVESGGGLVQAGGSLRLSCAASGRTFGYYAMGWYRQAPGKERELVAGIRSSGGSTYYADSVKGRFTISRDNAKNTVYLQMNSLKAEDTAVYYCAARLRSYNYRYGYDYWGQGTQVTVSS	high polyreactivity
QVQLVESCLGLVQAGGSLRLSFADSGIIIMFYSMGWYRQATGKERELLAAISASGGRTYYADSVKGRFTISRDNAKNTVYLQMNSLKPEDTAVYYCARLLPTPGKPILDYWGQGTQVTVSS	low polyreactivity
QVQLVESGGGLVQAGGSLRLSCAASGFIFVPNAMGWYRQAPGNERELVAAIRSSGGTTYYADSVKGRFTISRDNAKNTVYLQMNSLKPEDTAVYYCAAKYTSRLNSGYSNYYWGQGTQVTVSW	high polyreactivity
QVQLVESGGGLVQAGGSLRLSCAASGFTFTRNAMGLYRQAPGKERELFAAISKRGGTTYYADSVKGRFSISRDYAKNTVYLQMNSLKPEDTAVYYCAKDGGITGGYWGQGSQVTVSS	high polyreactivity
QVQIVESGGGLVQAGGSLRLSCAASGFTSQFYAMGWYRQAPGKEMELVAAISSGSSTYYADSVKGRFTSSRDNAKNTVYLQMNSLKPEDTAVYYCATTHKTLRRYDSWGQGTKVTVSS	low polyreactivity
QVQLVESGGGLVQAGGSLRLSCAASGRIFYYNAMGWYRQAPGKERELVAAITRGGSTYYADSVKGRFTISRDNAKNTVYLQMNCLKPVDTAVYYCAADRPGYSRYTTSVKGQRYYYWGQGTQVTVSS	high polyreactivity
QVQLVESGGGLVQAGGSLRLSCAASGIIFYRNTMGWYRQAPGKERELVAAITSGGTTYADSVKGRFTISRDNAKNTVYLQMNSLKPEDTAVYYCATDYWYRGFEYEYWGQGTQVTVSS	high polyreactivity
QVQLVESGGGLVQAGGSLRLSCAASGRTFFVYAMGWYRQAPVKERELVAAISNTGGRTYYADSVKGRFTISRDNAKNTVYLQMNSLKPEDTAVYYCAAPYSGPYRSYEYYWGQGTQVTVSS	low polyreactivity
QVQLVESGGGLVQAGGSLRLSCAASGRILTYYVMGWYRQAPGKERELVAAITDSGGITYADSVKGRFTISRDNAKNTVYLQMNSLKPEDTAVYYCAAVRFFLYYFDFSAYDYWGQGTQVTVSS	low polyreactivity
QVQLVESGGGLVQAGGSLRLSCAASGSTSSVMLWMGWYRQAPGKEREFVAGISWIDATTYYADSVKGRFTISRDNAKNTVYLQMNSLKPEDTAVYYCAADVRWLWYWYGRYDYWGQGTQVTVSS	high polyreactivity
QVQLVESRGGLVQAGGSLRLSSAASGSTYGVNPMGWYRQAPGKERELVAAISVSGGRTYYADSVKGRFTISRDNAKNTVDLQMNSLKPEDTAVYYCNADGLYAYVWYDYWGQGTQVSVSS	low polyreactivity
HVQLVESGGGLVQAGGSLRISCAASGRTLEQYAMGWYRQAPGKERELVAAINKSGARTYYADSVKGRFTISRDNAKNTVYLQMNSLKPEDTAVYYCNTVGPCYLFDYWGQGTQVTVSS	high polyreactivity
QVQLVQSGGGLLQAGGSLRLSSAASGYTFGYYARGCYREAPGQERELVAAITSGGTTNYADTVKGRFTISRDNAKNTVYLQINSLKPEDTAVSYCNAVCTFVRYWTDGRDGVTYDYWGQGTQVTVSS	low polyreactivity
QVQLVESGGGLVQAGGSLRLSCAASGRIFYKNVMGWYRPAPGKERELVATITRRGGRTFYADSVKGRFTISRDNAKNTVYLQMNSLKPEDTAVYFCNVLPQPGKESTGDDYWGQGTQVTVSS	high polyreactivity
QVQLVESGGGLVQAGGSLRLSCAASGFIFYYNAMGWYRQAPGKERELVAAISASGDRTYYADSVKGRFTISRDNAKNTVYLQMNSLKPEDTAVYYCAARSQGARYSSRRRFGDYWGQGTQVTVSS	high polyreactivity
